Results on six molecules are retold here after paper doi:10.1101/2021.09.10.459853v1 (bioRxiv, 2021).

The conditions of data set [1]: cited from earlier work.
In data set [2] the test system is SST2 CNiFERs implanted in mouse cortex. Put plainly: SST volume transmission in vivo, core-satellite SST2 CNiFER implants. As to conditions: normal mouse cortex; distance less than 130 μm.
For data set [3] the following is noted: cited from earlier work. The source holds these as a separate data set.
In data set [4] the target is SST2 receptor (hSSTR2) in SST2 CNiFER clone #5F3 (Homo sapiens, UniProt P30874). In words: SST2 CNiFER FRET response, plate reader. As to conditions: 1000 nM; n = 3-6. In kind it is cell-based.
Data set [5] deals with hyaluronan in mouse brain cortex. In words: HABP immunostaining after intraventricular hyaluronidase. It counts as in vivo. As to conditions: two days after hyase injection, n = 5 slices.
The nature of data set [6]: Integrative optical imaging. In kind it is physicochemical. As to conditions: IOI, 0.3% dilute agarose gel in PBS; 31°C; n=30 records; Mean ± S.D.; SD.

Sequence of SST2 receptor (hSSTR2) in SST2 CNiFER clone #5F3 (P30874 whole entry): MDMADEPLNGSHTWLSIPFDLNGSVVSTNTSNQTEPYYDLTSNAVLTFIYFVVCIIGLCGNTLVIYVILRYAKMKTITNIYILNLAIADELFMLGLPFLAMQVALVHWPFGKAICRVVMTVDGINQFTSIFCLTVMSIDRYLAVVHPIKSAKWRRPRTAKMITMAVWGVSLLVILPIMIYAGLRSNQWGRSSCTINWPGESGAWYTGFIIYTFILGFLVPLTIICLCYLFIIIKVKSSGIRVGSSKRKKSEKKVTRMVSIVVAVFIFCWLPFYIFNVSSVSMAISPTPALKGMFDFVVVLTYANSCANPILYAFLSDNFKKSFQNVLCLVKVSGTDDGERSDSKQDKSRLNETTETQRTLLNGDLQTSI

Consider oxytocin, for which, in data set [1], the “half-life in brain cerebrospinal fluid (CSF)” value is listed as ~ 20 mins.
For `C[C@H](N)C(=O)NCC(=O)N[C@H]1CSSC[C@@H](C(=O)O)NC(=O)[C@H](CO)NC(=O)[C@H]([C@@H](C)O)NC(=O)[C@H](Cc2ccccc2)NC(=O)[C@H]([C@@H](C)O)NC(=O)[C@H](CCCCN)NC(=O)[C@H](Cc2c[nH]c3ccccc23)NC(=O)[C@H](Cc2ccccc2)NC(=O)[C@H](Cc2ccccc2)NC(=O)[C@H](CC(N)=O)NC(=O)[C@H](CCCCN)NC1=O` [SST, Somatostatin-14], the “time to activate SST2 CNiFERs” value in data set [2] is “below 10 s”. For the same molecule, the half-life in plasma in data set [3] is 1 to 3 min.
As to `CC(=O)OCC[N+](C)(C)C` [acetylcholine], the “FRET response of SST2 CNiFERs” value in data set [4] is reported as “small response”.
In the case of vasopressin, the “half-life in brain cerebrospinal fluid (CSF)” value in data set [1] is ~ 20 mins.
With hyaluronidase, in data set [5], the “cell nuclei number or size in cortex compared with control group” value is given as “no differences”.
“Fluorescein-5(6)-carbonyl-somatostatin-14 [5(6)-FAM-SST]”: the “free diffusion coefficient (D)” value in data set [6] is “(3.00 ± 0.18) × 10^-6 cm^2•s^-1”.
